# The supplement of paper PMC10567573
# ± gives the standard deviation.
# Assay: protein stability index of a GFP-peptide fusion (GPS, HEK-293T) (PSI 1-6); higher = more stable
# Settings: c terminus: a fixed tail appended
# 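Also: 24-mer peptide tiles fused after GFP, lentivirally expressed, FACS-sorted into six equal bins by GFP/DsRed ratio, decoded by Illumina sequencing, PSI is the read-weighted mean bin number.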
Sequence,protein stability index (treatment: DMSO),"protein stability index (treatment: MLN4924 1 uM, 8 h)"
STGYCWCVLVDTGRPIPGTSTRYE [SMOC2],2.64 ± 1.8,2.12 ± 0.32
STVGSAISRKLGDMRNSATFKSFE [TPD52L2],3.28 ± 0.2,3.28 ± 0.31
SVCFIFTITIGMFPAVTVEVKSSI [SLC29A1],3.17 ± 0.55,3.46 ± 0.34
SVPDVPKSMAWCENSICVGFKRDY [VPS39],2.91 ± 0.16,2.94 ± 0.25
SVQQNGSIYIHVYFTKSGFHPDPR [CLPTM1],3.14 ± 0.98,2.29 ± 0.56
SWGWDLGRSRLYHDGKNQPGVAYP [SPSB4],2.72 ± 0.29,2.56 ± 0.26
SWVVRVQAAKLLGSMEQVSSHFLE [INTS4],2.47 ± 0.45,2.53 ± 0.43
SYDCTVKLWDPVDGSVVRDFEHRP [WDR88],3.44 ± 0.22,3.62 ± 0.3
TAFCTHVFPETAFIAVTSYQNHKI [TBX5],2.31 ± 0.41,2.27 ± 0.42
TEDEKKELENLAAMDLELQKIAEK [CHGB],5.47 ± 0.22,5.57 ± 0.083
TEFTLGDDKHYGGFTNKQLQSGQE [PTPRD],4.91 ± 0.2,4.77 ± 0.13
TELSFLVTTHQPTNLVLPSNGSMH [EDNRA],2.67 ± 0.33,2.44 ± 0.42
TEPMAWNETADLGLDIGAQGEPLG [CTNNB1],5.29 ± 0.23,5.25 ± 0.18
TEQLIEAVNNGDFEAYAKICDPGL [CAMK2B],4.19 ± 0.22,4.19 ± 0.23
TESEAHYSSQLSQVQSLITNVESQ [KRT34],4.83 ± 0.31,4.78 ± 0.21
TFFEVSPLCNFNIIESFTELARIV [RAB40A],2.53 ± 0.42,2.43 ± 0.28
TFVFLASLLVLIEPVAAGSGIPEV [CLCN6],2.91 ± 0.58,2.71 ± 0.6
TGAHWMRQPVSFHRVKLTNSTLDP [TBX6],2.96 ± 0.074,3.02 ± 0.16
TGESKEQVANSAFVERVRKRGFEV [HSP90AB1],4.18 ± 0.15,4.26 ± 0.12
TGIIDSLTISPKAARVGLLQYSTQ [MATN2],2.72 ± 1.3,2.43 ± 0.23
TGVQEVLSALLRATPGEYSVNICG [SPAG8],2.5 ± 0.59,2.23 ± 0.16
THEEGSYLFWEFATDNYDIGFGVY [ACBD3],2.65 ± 0.48,2.15 ± 0.32

Sequence,protein stability index (treatment: DMSO),"protein stability index (treatment: MLN4924 1 uM, 8 h)"
THPVTNTTEKQRLVKKLQDSVLER [GOLPH3L],4.13 ± 0.2,4.39 ± 0.13
TISFRIYKSVLQAVQKTDEGHPFK [RTN1],2.13 ± 0.17,2.28 ± 0.13
TKEVMNKYKVHGKEILRTLQDVFC [PPEF2],2.63 ± 0.12,2.65 ± 0.34
TKKGFYSLSVRHRQVKHYRIFRLP [SLA],2.54 ± 0.45,2.54 ± 0.31
TKMWHPNIYENGDVCISILHPPVD [UBE2R2],2.11 ± 0.34,2.23 ± 0.055
TLEEKFSDVHPVALNFMKGCLKMN [CDKL4],3.08 ± 0.34,3.16 ± 0.27
TLGGELGALEALELSPPLSPASHV [FOXJ1],4.12 ± 0.3,4.26 ± 0.098
TLQGLYLVYHPVQLSTPHAVGVLL [DHCR7],3.18 ± 0.49,2.97 ± 0.5
TLRTCYAANPRPDALMKEQLVEMT [ISL2],3.53 ± 0.22,3.52 ± 0.28
TLSASSSAGGSRTPAMSSSSSSRV [TFE3],4.57 ± 0.46,4.96 ± 0.25
TLSTIEFQREALENSHTNTEVLRN [CHMP4C],4.66 ± 0.14,4.92 ± 0.19
TNEKALEAVFGKYGRIVEVLLMKD [RBMX],1.97 ± 0.46,2.15 ± 0.29
TNKFYMLDSRSTDRVLQWERIDCQ [KLHDC2],2.43 ± 0.36,2.8 ± 0.58
TPSLLRFALASLLQSAPDVKGRVR [ZSWIM9],2.5 ± 0.16,2.53 ± 0.34
TQEKKAESKEPIEEEPTGAGLNKD [SDE2],5.65 ± 0.12,5.41 ± 0.28
TQGCHPAWEPRSESQASRKEEGLP [ZNF8],4.89 ± 0.25,4.96 ± 0.18
TQHFVQENYLEYRQVPGSDPACYE [MAGEA3],4.26 ± 0.081,4.34 ± 0.12
TQLKIENNPFAKGFRGSDDMELHR [TBX5],4.04 ± 0.25,4.02 ± 0.67
TQQWTAICPLKERRFGAVACGVAM [GAN],2.83 ± 0.37,2.52 ± 0.55
TRIMIGLTLVFFVQITGQPNILFY [SLC2A12],3.16 ± 0.61,3.27 ± 0.35
TRKINNSFLRDHSYATEADIISTV [PPP2R2B],3.32 ± 0.14,3.32 ± 0.12
TRYHLQQARRQQVKQYLSTTLGPK [TFE3],3.21 ± 0.15,3.29 ± 0.2
